We go through one molecule from patent publication US20240368574A1 (BELLICUM PHARMACEUTICALS, published 2024).

The assay deals with four tandem FKBP12 domains expressed from pBP0722 pSH1-Fpk-Fpk'.LS.Fpk''.Fpk'''.LS.HA. The experiment in a line: cell-based or functional assay.

B1: FRBL-ΔCaspase-9 expressed from pBP0463 pSH1-FRBL.dCaspase9.T2A (other)
chain: EMWHEGLEEASRLYFGERNVKGMFEVLEPLHAMMERGPQTLKETSFNQAYGRDLMEAQEWCRKYMKSGNVKDLLQAWDLYYHVFRRISKSGGGSGVDDGFGDVGALESLRGNADLAYILSMEPCGHCLIINNVNFCRESGLRTRTGSNIDCEKLRRRFSSLHFMVEVKGDLTAKKMVLALLELARQDHGALDCCVVVILSHGCQASHLQFPGAVYGTDGCPVSVEKIVNIFNGTSCPSLGGKPKLFFIQACGGEQKDHGFEVASTSPEDESPGSNPEPDATPFQEGLRTFDQLDAISSLPTPSDIFVSYSTFPGFVSWRDPKSGSWYVETLDDIFEQWAHSEDLQSLLLRVANAVSVKGIYKQMPGCFNFLRKKLFFKTSASRAEGRGSLLTCGDVEENPGP
Take B1: the “IC50 of rapamycin or C7-isopropoxy-rapamycin (the small-molecule heterodimerizer, not of a protein) for loss of SRα-SEAP reporter activity in transfected 293 cells” value is approximately 3 nM.
